Assay results from the Human Domainome abundance scans (Beltran et al. 2025).

B1: Syntaxin-binding protein 4, residues 493 to 538; numbered along this chain, Q6ZWJ1 (parent)
chain: LDMDCLPYGWEEAYTADGIKYFINHVTQTTSWIHPVMSVLNLSRSE

Variants of: B1
Assay: abundance fitness (aPCA) (normalised: wild type 0, dead -1); higher = more abundant; growth selection in yeast, the domain comes from the species named
Conditions: Homo sapiens

Abundance fitness: each site, then its substitutions
M3: R 0.027; Y -0.458; H -0.117; I -0.425; W -0.692; Q 0.065; E 0.144; N 0.354; A -0.058; L -0.036; D -0.103; F -0.069; T 0.287; G -0.084; C 0.117
G18: H -0.862; S -0.725; W -0.493; D -0.576; V -0.867; P -0.834; E -0.681; Q -0.661; Y -0.787; N -0.845; T -0.949; I -0.488; M -0.846; K -0.453; C -0.902
K20: Y -0.783; N -0.54; V -0.717; G -0.857; A -0.699; L -0.794; W -0.686; S -0.836; I -0.853; F -0.919; H -0.444; P -0.141; C -0.753; M -0.848; D -0.743; Q -0.897; R -0.198; T -0.767
D2: R -0.603; Q -0.48; A -0.445; P -0.985; E -0.206; S -0.478; M -0.334; I -0.698; L -0.424; K -0.269; F -0.849; G -0.366; T -0.334; V -0.576; N -0.388; C -0.699
L6: W -0.922; D -0.405; G -0.754; Q -0.817; E -0.541; Y -0.709; I -0.965; V -0.511; N -0.375; T -0.737; K -0.266; F -0.604; S -0.816; M -0.692; P -0.608; A -0.707; H -0.844; R -0.644
A16: R -0.66; K 0.211; S -0.011; F -0.781; T -0.408; W -0.901; V -0.57; L -0.649; C -0.555; M -0.5; Y -0.606; D -0.029; I -0.716; Q -0.182; P -0.349; G -0.445; N -0.283; H -0.342; E -0.118
C5: K 0.076; R -0.18; I -0.113; M -0.173; E 0.234; D 0.321; N -0.254; F -0.11; Y -0.268; H -0.06; W -0.533; V -0.155; G -0.04; A 0.238; P -0.291; S 0.142
L1: Y -0.198; T -0.004; W -0.334; S 0.28; R -0.874; N -0.101
G9: C -0.892; H -0.86; Q -0.908; V -0.692; P -0.397; W -0.699; A -0.803; R -0.846; T -0.833; M -0.865; I -0.459; K -0.807; F -0.926; D -0.604; E -0.184; L -0.636; N -0.849; Y -0.826
Y14: F -0.659; M -0.614; Q -0.305; C -0.586; K -0.907; L -0.689; A -0.645; S -0.462; I -0.856; W -0.271; T -0.522; R -0.389; V -0.411; H -0.575; P -1; G -0.773; E -0.513; D -0.976; N -0.994
P7: A -0.646; E -0.711; H -0.669; G -0.719; Q -0.903; R -0.782; N -0.714; W -0.629; K -0.649; I -0.984; T -0.483; L -0.711; M -0.793; V -0.742; F -0.616; S -0.834
D4: L -0.638; F -0.613; E -0.16; A -0.561; C -0.354; W -0.499; I -0.639; H -0.835; K -0.543; R -0.545; G -0.348; Y -0.863; S -0.221; N -0.098; V -0.766; P -0.511; T -0.535
E12: M -0.361; L -0.804; P -0.795; A -0.767; S -0.619; K -0.953; D -0.89; N -0.765; C -0.496; I -0.273; T -0.518; W -0.744; Q -0.463; Y -0.794; R -0.804; G -0.818; F -0.801; H -0.795; V 0.12
E11: Y -0.909; T -0.733; D -0.528; G -0.827; V -0.531; S -0.433; H -0.657; A -0.747; L -0.771; M -0.793; F -0.555; W -0.696; K -0.535; I -0.502; C -0.861; Q -0.4; P -0.78; R -0.537
I19: H 0.293; R 0.428; N 0.65; K 0.791; M 0.313; F -0.352; Q 0.7; E 1.09; V 0.054; S 0.634; W -0.566; P -0.761; Y -0.034; A 0.708; D 0.771; T 0.234; C 0.348; G -0.062
D17: W -0.835; G -0.76; Q -0.571; K -0.547; S -0.625; N -0.548; Y -0.881; P -0.867; V -0.648; L -0.823; T -0.793; M -0.88; H -0.691; I -0.63; R -0.697; C -0.873; A -0.69; F -0.942
Y8: E 0.326; T -0.122; Q -0.119; I -0.08; F -0.258; W -0.371; K 0.109; A 0.198; D 0.326; P 0.157; L -0.367; G -0.028; R -0.34; M -0.292; H -0.094; S 0.138; C -0.425
A13: E -0.923; D -1.11; Y -0.914; K -0.534; I -0.998; N -0.774; F -0.946; C -0.676; R -0.501; G -0.746; V -0.686; Q -0.677; P -0.922; T -0.527; S -0.5; L -0.742; W -0.766; H -1.01
W10: I -0.596; L -0.844; N -0.615; R -0.863; G -0.716; S -0.816; C -1.01; Y -0.774; T -0.869; Q -0.613; A -0.667; F -0.796; D -0.68; M -0.918; P -0.741; V -0.651
T15: S -0.672; R -0.698; H -0.881; Y -0.65; A -0.801; N -0.806; Q -0.706; F -0.883; E -0.859; G -0.561; W -0.814; V -0.862; D -0.509; I -0.772; K -0.938; C -1; P -0.531
